From publication PMC4090420 (Biochemistry, 2013)

Target: 2F5 MAb (human)
Assay: ELISA

B1: 2F5–17 αIM (designed binder)
chain: VSDVPRDLEVVAATPTSLLISWPYDKWAYRYYRITYGETGGNSPVQEFTVPGSKSTATISGLKPGVDYTITVYAVTRWYWVPHYSKPISINYRT
modifications: biotin on the birA site
fold lower affinity than the MPER peptide: ~10 fold
